Reference: the supplement of paper PMC9112550, “Optimization of the antimicrobial peptide Bac7 by deep mutational scanning” (BMC Biology, 2022)

Tested on: Escherichia coli TOP10
Experiment: shrunken log2 fold change of peptide-encoding DNA abundance (4.5 h post-induction vs induction); higher = less antimicrobial activity (less host growth inhibition)
Details: time post-induction: 4.5 h; library: site-saturation at positions 5, 18, 19, 20
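Note: peptides expressed intracellularly from a pBAD plasmid library in pooled LB shake-flask culture, induced with 0.3% L-arabinose, DNA abundance read by NGS, three biological replicates, DESeq2 with apeglm shrinkage.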

In the case of RRIRSRPPRLPRPRPRPQYGPRP, the “shrunken log2 fold change” value is reported as -0.118.
RRIRVRPPRLPRPRPRPYYCPRP was tested, and the “shrunken log2 fold change” value was -0.513.
For RRIRVRPPRLPRPRPRPLRLPRP, the “shrunken log2 fold change” value was 0.641.
For RRIRTRPPRLPRPRPRPYQLPRP, the “shrunken log2 fold change” value was -0.5.
In the case of RRIRHRPPRLPRPRPRPPAQPRP, the “shrunken log2 fold change” value is reported as 0.633.
With RRIRTRPPRLPRPRPRPFLWPRP the “shrunken log2 fold change” value was 0.189.
For RRIRDRPPRLPRPRPRPGYQPRP, the “shrunken log2 fold change” value was -0.0782.
For RRIRWRPPRLPRPRPRPHTDPRP, the “shrunken log2 fold change” value was -0.283.
In the case of RRIRRRPPRLPRPRPRPDSMPRP, the “shrunken log2 fold change” value is reported as -0.251.
For RRIRERPPRLPRPRPRPGCTPRP, the “shrunken log2 fold change” value was -0.169.
In the case of RRIRIRPPRLPRPRPRPNEIPRP, the “shrunken log2 fold change” value is reported as -0.191.
For RRIRNRPPRLPRPRPRPKLPPRP, the “shrunken log2 fold change” value was 0.0992.
In the case of RRIRDRPPRLPRPRPRPLNWPRP, the “shrunken log2 fold change” value is reported as 0.0327.
RRIRSRPPRLPRPRPRPQKMPRP was tested, and the “shrunken log2 fold change” value was -0.122.
In the case of RRIRHRPPRLPRPRPRPIVGPRP, the “shrunken log2 fold change” value is reported as -0.476.
RRIRTRPPRLPRPRPRPSKKPRP was tested, and the “shrunken log2 fold change” value was -0.174.
For RRIRVRPPRLPRPRPRPCIHPRP, the “shrunken log2 fold change” value was 0.0261.
With RRIRMRPPRLPRPRPRPFEPPRP the “shrunken log2 fold change” value was 0.174.
For RRIRGRPPRLPRPRPRPVMKPRP, the “shrunken log2 fold change” value was 0.729.
For RRIRIRPPRLPRPRPRPMHAPRP, the “shrunken log2 fold change” value was 0.325.
With RRIRNRPPRLPRPRPRPFRWPRP the “shrunken log2 fold change” value was 0.0512.
In the case of RRIRNRPPRLPRPRPRPWKNPRP, the “shrunken log2 fold change” value is reported as 0.175.
In the case of RRIRGRPPRLPRPRPRPIKSPRP, the “shrunken log2 fold change” value is reported as 0.326.
In the case of RRIRKRPPRLPRPRPRPHHKPRP, the “shrunken log2 fold change” value is reported as -0.176.
RRIRGRPPRLPRPRPRPWSTPRP was tested, and the “shrunken log2 fold change” value was 0.243.
In the case of RRIRDRPPRLPRPRPRPSLQPRP, the “shrunken log2 fold change” value is reported as 0.073.
In the case of RRIRMRPPRLPRPRPRPSVAPRP, the “shrunken log2 fold change” value is reported as 0.44.
RRIRRRPPRLPRPRPRPHMCPRP was tested, and the “shrunken log2 fold change” value was -0.0222.
For RRIRMRPPRLPRPRPRPEYPPRP, the “shrunken log2 fold change” value was 0.0399.
With RRIRIRPPRLPRPRPRPFGNPRP the “shrunken log2 fold change” value was -0.118.
With RRIRSRPPRLPRPRPRPLHCPRP the “shrunken log2 fold change” value was 0.0547.
RRIRARPPRLPRPRPRPDYVPRP was tested, and the “shrunken log2 fold change” value was 0.353.
In the case of RRIRFRPPRLPRPRPRPTLRPRP, the “shrunken log2 fold change” value is reported as 0.0831.
RRIRFRPPRLPRPRPRPNDYPRP was tested, and the “shrunken log2 fold change” value was -0.355.
With RRIRKRPPRLPRPRPRPECMPRP the “shrunken log2 fold change” value was 1.58.
For RRIRNRPPRLPRPRPRPRYYPRP, the “shrunken log2 fold change” value was -0.705.
For RRIRPRPPRLPRPRPRPKMVPRP, the “shrunken log2 fold change” value was 0.0319.
In the case of RRIRQRPPRLPRPRPRPDYSPRP, the “shrunken log2 fold change” value is reported as -0.0839.
RRIRQRPPRLPRPRPRPPTSPRP was tested, and the “shrunken log2 fold change” value was -0.00728.
For RRIRDRPPRLPRPRPRPQGYPRP, the “shrunken log2 fold change” value was -0.0816.
RRIRYRPPRLPRPRPRPYVIPRP was tested, and the “shrunken log2 fold change” value was -1.19.
RRIRHRPPRLPRPRPRPVKDPRP was tested, and the “shrunken log2 fold change” value was -0.549.
With RRIRKRPPRLPRPRPRPQICPRP the “shrunken log2 fold change” value was -0.0742.
For RRIRYRPPRLPRPRPRPCSMPRP, the “shrunken log2 fold change” value was -0.0147.
For RRIRMRPPRLPRPRPRPREDPRP, the “shrunken log2 fold change” value was 0.0544.
RRIRPRPPRLPRPRPRPQGIPRP was tested, and the “shrunken log2 fold change” value was 0.102.
With RRIRRRPPRLPRPRPRPKRTPRP the “shrunken log2 fold change” value was 0.759.
RRIRERPPRLPRPRPRPSNQPRP was tested, and the “shrunken log2 fold change” value was -0.841.
RRIRLRPPRLPRPRPRPASHPRP was tested, and the “shrunken log2 fold change” value was 0.0961.
For RRIRIRPPRLPRPRPRPVHPPRP, the “shrunken log2 fold change” value was -0.0793.
For RRIRRRPPRLPRPRPRPWDMPRP, the “shrunken log2 fold change” value was 0.0681.
With RRIRKRPPRLPRPRPRPTVWPRP the “shrunken log2 fold change” value was 0.548.
In the case of RRIRGRPPRLPRPRPRPIQWPRP, the “shrunken log2 fold change” value is reported as 0.325.
With RRIRKRPPRLPRPRPRPWMKPRP the “shrunken log2 fold change” value was -0.0454.
With RRIRIRPPRLPRPRPRPVSAPRP the “shrunken log2 fold change” value was 0.0887.
With RRIRQRPPRLPRPRPRPALGPRP the “shrunken log2 fold change” value was 0.563.
RRIRWRPPRLPRPRPRPSYHPRP was tested, and the “shrunken log2 fold change” value was -0.568.
With RRIRVRPPRLPRPRPRPCAHPRP the “shrunken log2 fold change” value was -0.0704.
For RRIRYRPPRLPRPRPRPMCHPRP, the “shrunken log2 fold change” value was -0.0146.
In the case of RRIRARPPRLPRPRPRPWWNPRP, the “shrunken log2 fold change” value is reported as -0.108.
In the case of RRIRRRPPRLPRPRPRPWFKPRP, the “shrunken log2 fold change” value is reported as -0.139.
With RRIRYRPPRLPRPRPRPFVRPRP the “shrunken log2 fold change” value was 0.00599.
In the case of RRIRKRPPRLPRPRPRPCSQPRP, the “shrunken log2 fold change” value is reported as 0.0126.
In the case of RRIRLRPPRLPRPRPRPPVGPRP, the “shrunken log2 fold change” value is reported as 1.42.
In the case of RRIRFRPPRLPRPRPRPIFQPRP, the “shrunken log2 fold change” value is reported as -0.46.
RRIRARPPRLPRPRPRPCQKPRP was tested, and the “shrunken log2 fold change” value was 0.431.
With RRIRGRPPRLPRPRPRPLNHPRP the “shrunken log2 fold change” value was 0.0752.
In the case of RRIRLRPPRLPRPRPRPTKLPRP, the “shrunken log2 fold change” value is reported as -0.0137.
RRIRWRPPRLPRPRPRPKCRPRP was tested, and the “shrunken log2 fold change” value was 0.294.
With RRIRMRPPRLPRPRPRPRLVPRP the “shrunken log2 fold change” value was 0.76.
RRIRYRPPRLPRPRPRPERYPRP was tested, and the “shrunken log2 fold change” value was 0.11.
In the case of RRIRHRPPRLPRPRPRPSWWPRP, the “shrunken log2 fold change” value is reported as 0.348.
In the case of RRIRERPPRLPRPRPRPQAVPRP, the “shrunken log2 fold change” value is reported as 0.0552.
With RRIRNRPPRLPRPRPRPIFEPRP the “shrunken log2 fold change” value was 0.0552.
With RRIRERPPRLPRPRPRPGCAPRP the “shrunken log2 fold change” value was 0.335.
In the case of RRIRHRPPRLPRPRPRPRFRPRP, the “shrunken log2 fold change” value is reported as -0.105.
With RRIRLRPPRLPRPRPRPNVRPRP the “shrunken log2 fold change” value was -0.00281.
In the case of RRIRCRPPRLPRPRPRPSTDPRP, the “shrunken log2 fold change” value is reported as -0.348.
For RRIRGRPPRLPRPRPRPKKHPRP, the “shrunken log2 fold change” value was 0.655.
For RRIRNRPPRLPRPRPRPYWFPRP, the “shrunken log2 fold change” value was -0.124.
For RRIRFRPPRLPRPRPRPPILPRP, the “shrunken log2 fold change” value was -0.254.
For RRIRGRPPRLPRPRPRPIPRPRP, the “shrunken log2 fold change” value was 0.519.
In the case of RRIRIRPPRLPRPRPRPAWHPRP, the “shrunken log2 fold change” value is reported as 0.031.
For RRIRERPPRLPRPRPRPLNNPRP, the “shrunken log2 fold change” value was -0.705.
With RRIRMRPPRLPRPRPRPRPAPRP the “shrunken log2 fold change” value was 1.51.
RRIRFRPPRLPRPRPRPPCCPRP was tested, and the “shrunken log2 fold change” value was 0.0896.
In the case of RRIRCRPPRLPRPRPRPGRDPRP, the “shrunken log2 fold change” value is reported as 0.18.
RRIRLRPPRLPRPRPRPAWAPRP was tested, and the “shrunken log2 fold change” value was 0.232.
In the case of RRIRCRPPRLPRPRPRPWPHPRP, the “shrunken log2 fold change” value is reported as -0.0205.
In the case of RRIRVRPPRLPRPRPRPASRPRP, the “shrunken log2 fold change” value is reported as 0.275.
RRIRCRPPRLPRPRPRPWIYPRP was tested, and the “shrunken log2 fold change” value was -0.821.
With RRIRFRPPRLPRPRPRPTPRPRP the “shrunken log2 fold change” value was 0.803.
With RRIRSRPPRLPRPRPRPVEFPRP the “shrunken log2 fold change” value was -0.928.
With RRIRMRPPRLPRPRPRPKWQPRP the “shrunken log2 fold change” value was -0.0255.
With RRIRDRPPRLPRPRPRPAMTPRP the “shrunken log2 fold change” value was 0.812.
RRIRKRPPRLPRPRPRPSMNPRP was tested, and the “shrunken log2 fold change” value was -0.00473.
With RRIRIRPPRLPRPRPRPKLPPRP the “shrunken log2 fold change” value was 0.0199.
For RRIRSRPPRLPRPRPRPYCNPRP, the “shrunken log2 fold change” value was -0.709.
In the case of RRIRMRPPRLPRPRPRPSNHPRP, the “shrunken log2 fold change” value is reported as 0.00558.
RRIRERPPRLPRPRPRPDSSPRP was tested, and the “shrunken log2 fold change” value was -0.509.
For RRIRQRPPRLPRPRPRPWSVPRP, the “shrunken log2 fold change” value was -0.0201.
With RRIRCRPPRLPRPRPRPSYDPRP the “shrunken log2 fold change” value was -0.428.
In the case of RRIRDRPPRLPRPRPRPYNHPRP, the “shrunken log2 fold change” value is reported as -0.704.
With RRIRVRPPRLPRPRPRPTHDPRP the “shrunken log2 fold change” value was 0.143.
RRIRLRPPRLPRPRPRPHDRPRP was tested, and the “shrunken log2 fold change” value was -0.132.
For RRIRGRPPRLPRPRPRPAYWPRP, the “shrunken log2 fold change” value was -0.0674.
For RRIRKRPPRLPRPRPRPHSVPRP, the “shrunken log2 fold change” value was 0.11.
For RRIRARPPRLPRPRPRPDIHPRP, the “shrunken log2 fold change” value was 0.145.
In the case of RRIRRRPPRLPRPRPRPMDYPRP, the “shrunken log2 fold change” value is reported as 0.0716.
With RRIRKRPPRLPRPRPRPKQFPRP the “shrunken log2 fold change” value was -0.123.
In the case of RRIRKRPPRLPRPRPRPPKFPRP, the “shrunken log2 fold change” value is reported as 0.514.
With RRIRGRPPRLPRPRPRPNGYPRP the “shrunken log2 fold change” value was -0.00669.
In the case of RRIRQRPPRLPRPRPRPHCCPRP, the “shrunken log2 fold change” value is reported as -0.0421.
With RRIRWRPPRLPRPRPRPSIQPRP the “shrunken log2 fold change” value was -0.0487.
In the case of RRIRKRPPRLPRPRPRPYQHPRP, the “shrunken log2 fold change” value is reported as -0.0857.
For RRIRDRPPRLPRPRPRPVNCPRP, the “shrunken log2 fold change” value was -0.328.
In the case of RRIRRRPPRLPRPRPRPPRPPRP, the “shrunken log2 fold change” value is reported as 1.01.
For RRIRKRPPRLPRPRPRPDWDPRP, the “shrunken log2 fold change” value was -0.193.
RRIRVRPPRLPRPRPRPMNWPRP was tested, and the “shrunken log2 fold change” value was -0.474.
RRIRGRPPRLPRPRPRPCVNPRP was tested, and the “shrunken log2 fold change” value was 0.0252.
For RRIRDRPPRLPRPRPRPAFIPRP, the “shrunken log2 fold change” value was -0.115.
RRIRMRPPRLPRPRPRPTLPPRP was tested, and the “shrunken log2 fold change” value was 0.248.
In the case of RRIRFRPPRLPRPRPRPEKSPRP, the “shrunken log2 fold change” value is reported as -0.101.
RRIRGRPPRLPRPRPRPEMFPRP was tested, and the “shrunken log2 fold change” value was 0.0463.
RRIRDRPPRLPRPRPRPTMTPRP was tested, and the “shrunken log2 fold change” value was 0.334.
